Results on 51 variants are retold here after the Human Domainome abundance scans (Beltran et al. 2025).

± gives the uncertainty stated by the source.

The labels stand for the following.
B1: Homeobox protein SIX6, residues 134 to 184; numbered along this chain, O95475 (parent)
chain: CFKERTRHLLREWYLQDPYPNPSKKRELAQATGLTPTQVGNWFKNRRQRDR

The variants in the series derive from B1. The experiment in a line: abundance fitness (aPCA) (normalised: wild type 0, dead -1); higher = more abundant; growth selection in yeast, the domain comes from the species named. As to conditions: Homo sapiens.
On to CFKERTRHLLREWYLQQPYPNPSKKRELAQATGLTPTQVGNWFKNRRQRDR, for which the abundance fitness was -0.678 ± 0.11.
As for CFKERTRHLLREWYLQSPYPNPSKKRELAQATGLTPTQVGNWFKNRRQRDR, the figure is -0.706 ± 0.046.
CFKERTRHLLREWYLQIPYPNPSKKRELAQATGLTPTQVGNWFKNRRQRDR: the abundance fitness is -1.01 ± 0.16.
As for CFKERTRHLLREWYLQVPYPNPSKKRELAQATGLTPTQVGNWFKNRRQRDR, the figure is -0.934 ± 0.098.
For CFKERTRHLLREWYLQAPYPNPSKKRELAQATGLTPTQVGNWFKNRRQRDR the value was -0.998 ± 0.081.
Regarding CFKERTRHLLREWYLQWPYPNPSKKRELAQATGLTPTQVGNWFKNRRQRDR, the abundance fitness was -0.912 ± 0.097.
For CFKERTRHLLREWYLQEPYPNPSKKRELAQATGLTPTQVGNWFKNRRQRDR the value was -0.643 ± 0.15; for CFKERTRHLLREWYLQHPYPNPSKKRELAQATGLTPTQVGNWFKNRRQRDR, -0.812 ± 0.064; for CFKERTRHLLREWYLQMPYPNPSKKRELAQATGLTPTQVGNWFKNRRQRDR, -0.849 ± 0.1.
As for CFKERTRHLLREWYLQCPYPNPSKKRELAQATGLTPTQVGNWFKNRRQRDR, the figure is -0.749 ± 0.1.
As for CFKERTRHLLREWYLQTPYPNPSKKRELAQATGLTPTQVGNWFKNRRQRDR, the figure is -0.914 ± 0.07; as for CFKERTRHLLREWYLQLPYPNPSKKRELAQATGLTPTQVGNWFKNRRQRDR, -0.794 ± 0.063; as for CFKERTRHLLREWYLQRPYPNPSKKRELAQATGLTPTQVGNWFKNRRQRDR, -0.899 ± 0.1.
In the case of CFKERTRHLLREWYLQKPYPNPSKKRELAQATGLTPTQVGNWFKNRRQRDR, the abundance fitness was -0.905 ± 0.074.
For CFKERTRHLLREWYLQYPYPNPSKKRELAQATGLTPTQVGNWFKNRRQRDR the value was -0.97 ± 0.09; for CFKERTRHLLREWYLQPPYPNPSKKRELAQATGLTPTQVGNWFKNRRQRDR, -0.852 ± 0.06; for CFKERTRHLLREWYLQFPYPNPSKKRELAQATGLTPTQVGNWFKNRRQRDR, -0.829 ± 0.11.
For CFKERTRHLLREWYNQDPYPNPSKKRELAQATGLTPTQVGNWFKNRRQRDR the value was 0.153 ± 0.18; for CFKERTRHLLREWYQQDPYPNPSKKRELAQATGLTPTQVGNWFKNRRQRDR, -0.025 ± 0.066.
For CFKERTRHLLREWYFQDPYPNPSKKRELAQATGLTPTQVGNWFKNRRQRDR the value was -0.651 ± 0.28.
As for CFKERTRHLLREWYIQDPYPNPSKKRELAQATGLTPTQVGNWFKNRRQRDR, the abundance fitness was -0.019 ± 0.23.
With CFKERTRHLLREWYKQDPYPNPSKKRELAQATGLTPTQVGNWFKNRRQRDR, the abundance fitness worked out at 0.003 ± 0.064.
For CFKERTRHLLREWYDQDPYPNPSKKRELAQATGLTPTQVGNWFKNRRQRDR the value was -0.418 ± 0.23; for CFKERTRHLLREWYEQDPYPNPSKKRELAQATGLTPTQVGNWFKNRRQRDR, -0.067 ± 0.087; for CFKERTRHLLREWYPQDPYPNPSKKRELAQATGLTPTQVGNWFKNRRQRDR, -0.922 ± 0.19.
For CFKERTRHLLREWYSQDPYPNPSKKRELAQATGLTPTQVGNWFKNRRQRDR the value was -0.03 ± 0.063; for CFKERTRHLLREWYRQDPYPNPSKKRELAQATGLTPTQVGNWFKNRRQRDR, -0.106 ± 0.056; for CFKERTRHLLREWYCQDPYPNPSKKRELAQATGLTPTQVGNWFKNRRQRDR, 0.49 ± 0.15.
For CFKERTRHLLREWYVQDPYPNPSKKRELAQATGLTPTQVGNWFKNRRQRDR the value was 0.037 ± 0.05; for CFKERTRHLLREWYAQDPYPNPSKKRELAQATGLTPTQVGNWFKNRRQRDR, 0.023 ± 0.082; for CFKERTRHLLREWYYQDPYPNPSKKRELAQATGLTPTQVGNWFKNRRQRDR, -0.185 ± 0.26.
Turning to CFKERTRHLLREWYGQDPYPNPSKKRELAQATGLTPTQVGNWFKNRRQRDR, the abundance fitness is -0.112 ± 0.072.
For CFKERTRHLLREWYLHDPYPNPSKKRELAQATGLTPTQVGNWFKNRRQRDR, the abundance fitness is -0.406 ± 0.1.
As for CFKERTRHLLREWYLYDPYPNPSKKRELAQATGLTPTQVGNWFKNRRQRDR, the figure is -0.12 ± 0.32; as for CFKERTRHLLREWYLVDPYPNPSKKRELAQATGLTPTQVGNWFKNRRQRDR, -0.067 ± 0.1; as for CFKERTRHLLREWYLPDPYPNPSKKRELAQATGLTPTQVGNWFKNRRQRDR, -0.782 ± 0.15.
For CFKERTRHLLREWYLMDPYPNPSKKRELAQATGLTPTQVGNWFKNRRQRDR, the abundance fitness was -0.253 ± 0.14.
For CFKERTRHLLREWYLFDPYPNPSKKRELAQATGLTPTQVGNWFKNRRQRDR the value was -0.27 ± 0.31.
As for CFKERTRHLLREWYLCDPYPNPSKKRELAQATGLTPTQVGNWFKNRRQRDR, the figure is -0.495 ± 0.29; as for CFKERTRHLLREWYLLDPYPNPSKKRELAQATGLTPTQVGNWFKNRRQRDR, 0.421 ± 0.12; as for CFKERTRHLLREWYLRDPYPNPSKKRELAQATGLTPTQVGNWFKNRRQRDR, -0.172 ± 0.068.
As for CFKERTRHLLREWYLWDPYPNPSKKRELAQATGLTPTQVGNWFKNRRQRDR, the abundance fitness was -0.727 ± 0.38.
As for CFKERTRHLLREWYLSDPYPNPSKKRELAQATGLTPTQVGNWFKNRRQRDR, the figure is -0.127 ± 0.056; as for CFKERTRHLLREWYLADPYPNPSKKRELAQATGLTPTQVGNWFKNRRQRDR, -0.027 ± 0.12.
For CFKERTRHLLREWRLQDPYPNPSKKRELAQATGLTPTQVGNWFKNRRQRDR, the abundance fitness is -0.821 ± 0.15.
As for CFKERTRHLLREWTLQDPYPNPSKKRELAQATGLTPTQVGNWFKNRRQRDR, the figure is -1.06 ± 0.39.
With CFKERTRHLLREWFLQDPYPNPSKKRELAQATGLTPTQVGNWFKNRRQRDR, the abundance fitness is -0.071 ± 0.06.
For CFKERTRHLLREWGLQDPYPNPSKKRELAQATGLTPTQVGNWFKNRRQRDR the value was -0.571 ± 0.072; for CFKERTRHLLREWMLQDPYPNPSKKRELAQATGLTPTQVGNWFKNRRQRDR, -0.825 ± 0.23; for CFKERTRHLLREWDLQDPYPNPSKKRELAQATGLTPTQVGNWFKNRRQRDR, -0.882 ± 0.086.
Consider CFKERTRHLLREWHLQDPYPNPSKKRELAQATGLTPTQVGNWFKNRRQRDR, for which the abundance fitness is -0.974 ± 0.23.
